Changes are numbered by the printed parent chain. Names and notes keep the numbering of the source.
B1: Q38H/I41A/D60bV/F60eR/Y60gW/D96I/F97N/T98G/F99L/C122S/G151H/Q175L/Q192D (enzyme)
chain: VVGGTDADEGEWPWQVSLHALGHGHACGASLISPNWLVSAAHCYIDVRGRRWSDPTQWTAFLGLHDQSQRSAPGVQERRLKRIISHPFFNINGLDYDIALLELEKPAEYSSMVRPISLPDASHVFPAGKAIWVTGWGHTQYGGTHALILQKGEIRVINQTTCENLLPQLITPRMMCVGFLSGGVDSCDGDSGGPLSSVEADGRIFQAGVVSWGDGCAQRNKPGVYTRLPLFRDWIKENTGV
B2: Q38Y/I41S/D60bT/F60eR/Y60gW/D96M/T98G/F99L/C122S/G151N/Q175L/Q192D (enzyme)
chain: B1 chain with H23Y, A26S, V47T, I91M, N92F, H145N
B3: Q38Y/I41S/D60bT/Y60gW/D96M/F97N/T98G/F99L/C122S/G151N/Q175L/Q192D (enzyme)
chain: B1 chain with H23Y, A26S, V47T, R50F, I91M, H145N
B4: Q38H/I41A/D60bV/F60eR/Y60gW/F97D/F99L/C122S/G151H/Q175L/Q192D (enzyme)
chain: B1 chain with I91D, N92D, G93T
B5: Q38H/I41S/D60bT/F60eS/Y60gW/D96I/F97N/T98G/F99L/C122S/G151N/Q175L/Q192D (enzyme)
chain: B1 chain with A26S, V47T, R50S, H145N
B6: H40R/I41H/F97D/F99L/C122S/Q175M/Q192G/D217V/K224Y (enzyme)
chain: VVGGTDADEGEWPWQVSLHALGQGRHCGASLISPNWLVSAAHCYIDDRGFRYSDPTQWTAFLGLHDQSQRSAPGVQERRLKRIISHPFFNDDTLDYDIALLELEKPAEYSSMVRPISLPDASHVFPAGKAIWVTGWGHTQYGGTGALILQKGEIRVINQTTCENLLPQMITPRMMCVGFLSGGVDSCGGDSGGPLSSVEADGRIFQAGVVSWGVGCAQRNYPGVYTRLPLFRDWIKENTGV
B7: I41S/F99L/C122S/G151N/Q175M/Q192G/D217V (enzyme)
chain: B6 chain with R25H, H26S, D92F, G145N, Y221K
B8: H40R/I41H/Y60gH/F97D/F99L/C122S/Q175M/Q192G/D217I/K224L (enzyme)
chain: B6 chain with Y52H, V214I, Y221L
B9: I41G/F97I/F99L/C122S/G151L/Q175M/Q192S/D217V (enzyme)
chain: B6 chain with R25H, H26G, D92I, G145L, G188S, Y221K
B10: Q38H/I41S/D60bT/F60eS/Y60gW/ins97aV/T98P/F99L/C122S/G151H/Q175L/Q192E (enzyme)
chain: VVGGTDADEGEWPWQVSLHALGHGHSCGASLISPNWLVSAAHCYIDTRGSRWSDPTQWTAFLGLHDQSQRSAPGVQERRLKRIISHPFFNDFVPLDYDIALLELEKPAEYSSMVRPISLPDASHVFPAGKAIWVTGWGHTQYGGTHALILQKGEIRVINQTTCENLLPQLITPRMMCVGFLSGGVDSCEGDSGGPLSSVEADGRIFQAGVVSWGDGCAQRNKPGVYTRLPLFRDWIKENTGV
B11: Q38H/I41A/D60bV/F60eR/Y60gW/D96F/F97S/ins97aH/T98G/F99L/C122S/G151N/Q175L/Q192G (enzyme)
chain: B10 chain with S26A, T47V, S50R, D91F, F92S, V93H, P94G, H146N, E189G
B12: Q38H/I41S/D60bT/F60eS/Y60gW/D96V/F97G/ins97aV/T98P/F99L/C122S/G151H/Q175L/Q192D (enzyme)
chain: B10 chain with D91V, F92G, E189D
B13: Q38H/I41A/F60eH/Y60gW/ins97aE/F97T/T98G/F99L/C122S/Q175L/Q192A (enzyme)
chain: B10 chain with S26A, T47D, S50H, F92T, V93E, P94G, H146G, E189A
B14: Q38H/I41A/D60bV/F60eR/Y60gW/D96P/ins97aN/F97W/T98G/F99L/C122S/G151N/Q175L/Q192D (enzyme)
chain: B10 chain with S26A, T47V, S50R, D91P, F92W, V93N, P94G, H146N, E189D
B15: Q38H/I41S/D60bF/F60eT/ins97aV/F97D/T98P/F99L/C122S/H143Q/G151N/Q175L/Q192G (enzyme)
chain: B10 chain with T47F, S50T, W52Y, F92D, H139Q, H146N, E189G
B16: Q38R/I41S/D60bY/F60eD/ins97aV/F97D/T98P/F99L/C122S/G151N/Q175M/Q192A (enzyme)
chain: B10 chain with H23R, T47Y, S50D, W52Y, F92D, H146N, L170M, E189A
B17: Q38H/I41S/D60bS/ins97aV/F97D/T98P/F99L/M117L/C122S/I136T/Q192G/D217I (enzyme)
chain: B10 chain with T47S, S50F, W52Y, F92D, M113L, I132T, H146G, L170Q, E189G, D215I
B18: I41T/D60bW/F60eH/F97D/ins97aV/T98P/F99L/C122S/G151N/Q175L/Q192G (enzyme)
chain: B10 chain with H23Q, S26T, T47W, S50H, W52Y, F92D, H146N, E189G
B19: Q38H/I41S/D60bT/F60eS/Y60gW/D96Y/F97N/ins97aE/T98S/F99L/C122S/G151H/Q175L/Q192D (enzyme)
chain: B10 chain with D91Y, F92N, V93E, P94S, E189D
B20: Q38H/I41A/D60bV/F60eI/Y60gW/F97T/ins97aE/T98G/F99L/C122S/G151N/Q175L/Q192D (enzyme)
chain: B10 chain with S26A, T47V, S50I, F92T, V93E, P94G, H146N, E189D
B21: Q38H/I41S/D60bT/F60eS/Y60gW/D96K/F97D/ins97aA/T98P/F99L/C122S/G151N/Q175L/Q192D (enzyme)
chain: B10 chain with D91K, F92D, V93A, H146N, E189D
B22: Q38H/I41S/D60bT/F60eS/Y60gW/D96F/F97Y/ins97aD/T98G/F99L/C122S/G151H/Q175L/Q192D (enzyme)
chain: B10 chain with D91F, F92Y, V93D, P94G, E189D
B23: Q38H/I41A/D60bT/F60eK/Y60gW/F97T/ins97aE/T98G/F99L/C122S/Q175L/Q192A (enzyme)
chain: B10 chain with S26A, S50K, F92T, V93E, P94G, H146G, E189A
B24: Q38H/I41A/D60bV/F60eR/Y60gW/D96F/F97Y/ins97aN/T98G/F99M/C122S/G151N/Q175L/Q192G (enzyme)
chain: B10 chain with S26A, T47V, S50R, D91F, F92Y, V93N, P94G, L95M, H146N, E189G
B25: Q38H/I41A/D60bW/ins97aV/F97D/T98P/F99L/C122S/I136M/Q192G/D217N (enzyme)
chain: B10 chain with S26A, T47W, S50F, W52Y, F92D, I132M, H146G, L170Q, E189G, D215N
B26: Q38H/I41S/D60bT/F60eS/Y60gW/D96K/F97G/ins97aV/T98P/F99L/C122S/T150S/G151H/Q175L/Q192D/Q209L (enzyme)
chain: B10 chain with D91K, F92G, T145S, E189D, Q207L
B27: Modified MTSP-1 protease domain Q38H/I41S/D60bT/F60eS/Y60gW/F97D/ins97aV/T98P/F99L/C122S/G151H/Q175L/Q192E (enzyme)
chain: B10 chain with F92D
B28: Modified MTSP-1 protease domain Q38H/I41S/D60bT/F60eS/Y60gW/F97D/ins97aV/T98P/F99L/C122S/G151H/Q175L/Q192D (enzyme)
chain: B10 chain with F92D, E189D
B29: Modified MTSP-1 protease domain Q38H/I41A/D60bT/F60eK/Y60gW/F97T/ins97aE/T98G/F99L/C122S/G151H/Q175L/Q192D (enzyme)
chain: B10 chain with S26A, S50K, F92T, V93E, P94G, E189D

Target: human complement protein C3 (human) (UniProt P01024)
Assay: cell-based or functional assay

human complement protein C3 (human), sequence (P01024 23-667, chain 1 of 2): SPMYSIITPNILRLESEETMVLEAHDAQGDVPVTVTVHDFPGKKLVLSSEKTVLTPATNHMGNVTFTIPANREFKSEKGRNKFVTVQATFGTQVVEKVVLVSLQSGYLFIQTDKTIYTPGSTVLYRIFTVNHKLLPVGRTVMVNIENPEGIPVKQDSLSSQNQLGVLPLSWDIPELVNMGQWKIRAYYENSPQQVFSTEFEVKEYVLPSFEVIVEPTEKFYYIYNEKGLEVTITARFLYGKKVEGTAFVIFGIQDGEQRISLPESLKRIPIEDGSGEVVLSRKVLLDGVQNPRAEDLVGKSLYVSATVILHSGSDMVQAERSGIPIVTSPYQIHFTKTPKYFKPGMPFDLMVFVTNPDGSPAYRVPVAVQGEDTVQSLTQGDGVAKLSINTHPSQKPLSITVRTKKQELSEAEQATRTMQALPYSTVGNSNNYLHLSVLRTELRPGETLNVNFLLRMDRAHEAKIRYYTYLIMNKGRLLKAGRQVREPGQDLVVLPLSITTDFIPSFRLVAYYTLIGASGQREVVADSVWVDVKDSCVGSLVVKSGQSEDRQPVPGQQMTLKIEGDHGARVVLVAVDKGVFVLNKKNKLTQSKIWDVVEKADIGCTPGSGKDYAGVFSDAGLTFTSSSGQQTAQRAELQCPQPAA
human complement protein C3 (human), sequence (P01024 672-1663, chain 2 of 2): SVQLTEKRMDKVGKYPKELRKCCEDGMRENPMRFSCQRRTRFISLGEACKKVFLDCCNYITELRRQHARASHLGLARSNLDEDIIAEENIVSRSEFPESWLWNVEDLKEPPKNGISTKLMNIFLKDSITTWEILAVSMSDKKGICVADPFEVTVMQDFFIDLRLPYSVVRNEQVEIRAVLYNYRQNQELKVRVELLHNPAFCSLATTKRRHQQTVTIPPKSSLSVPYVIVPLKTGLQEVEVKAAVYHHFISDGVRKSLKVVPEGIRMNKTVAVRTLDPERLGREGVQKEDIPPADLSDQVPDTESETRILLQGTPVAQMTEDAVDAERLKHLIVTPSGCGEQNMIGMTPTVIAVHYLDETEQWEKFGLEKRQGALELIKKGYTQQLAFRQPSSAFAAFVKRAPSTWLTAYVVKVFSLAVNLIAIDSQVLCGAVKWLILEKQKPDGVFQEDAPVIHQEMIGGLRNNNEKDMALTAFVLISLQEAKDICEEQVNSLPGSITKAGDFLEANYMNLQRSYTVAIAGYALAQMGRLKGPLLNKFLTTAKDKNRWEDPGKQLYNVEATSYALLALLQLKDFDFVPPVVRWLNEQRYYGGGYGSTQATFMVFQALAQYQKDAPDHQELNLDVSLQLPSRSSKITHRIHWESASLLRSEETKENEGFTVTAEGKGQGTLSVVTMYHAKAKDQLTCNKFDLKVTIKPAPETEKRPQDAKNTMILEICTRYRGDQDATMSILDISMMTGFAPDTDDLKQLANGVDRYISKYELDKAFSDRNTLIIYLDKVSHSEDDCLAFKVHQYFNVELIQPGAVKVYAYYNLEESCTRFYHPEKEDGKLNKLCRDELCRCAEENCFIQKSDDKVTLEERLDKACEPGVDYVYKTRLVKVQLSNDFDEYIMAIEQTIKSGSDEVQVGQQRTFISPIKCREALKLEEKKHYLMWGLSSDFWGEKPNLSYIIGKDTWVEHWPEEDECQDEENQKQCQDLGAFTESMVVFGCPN

Row | EC50 (nM), cleavage of purified hC3 in vitro | Binder
1 | 2.52 nM | B1
2 | 3.27 nM | B2
3 | 3.08 nM | B3
4 | 3.72 nM | B4
5 | 3.04 nM | B5
6 | 2.76 nM | B6
7 | 3.19 nM | B7
8 | 3.72 nM | B8
9 | 2.84 nM | B9
10 | 3.19 nM | B10
11 | 3.14 nM | B11
12 | 2.85 nM | B12
13 | 3.09 nM | B13
14 | 2.54 nM | B14
15 | 3.07 nM | B15
16 | 3.22 nM | B16
17 | 2.43 nM | B17
18 | 3.1 nM | B18
19 | 4.53 nM | B19
20 | 2.91 nM | B20
21 | 5.92 nM | B21
22 | 3.13 nM | B22
23 | 2.71 nM | B23
24 | 3.76 nM | B24
25 | 3.06 nM | B25
26 | 2.88 nM | B26

Target: proteinase-activated receptor 2 (PAR-2) (UniProt P55085)
Assay: cell-based or functional assay

proteinase-activated receptor 2 (PAR-2), sequence (P55085 37-397 limits assumed): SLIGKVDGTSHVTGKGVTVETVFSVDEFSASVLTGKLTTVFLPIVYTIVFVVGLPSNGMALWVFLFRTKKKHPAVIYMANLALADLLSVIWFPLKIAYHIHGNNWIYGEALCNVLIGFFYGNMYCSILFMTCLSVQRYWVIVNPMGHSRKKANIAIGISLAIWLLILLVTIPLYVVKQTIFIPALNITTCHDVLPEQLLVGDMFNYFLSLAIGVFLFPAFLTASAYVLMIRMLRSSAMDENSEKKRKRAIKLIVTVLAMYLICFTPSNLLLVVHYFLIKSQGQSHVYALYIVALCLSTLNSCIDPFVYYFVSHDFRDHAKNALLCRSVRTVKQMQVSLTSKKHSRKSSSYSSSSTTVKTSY

Row | PAR-2 cell based assay ED50 and SKGR/SL kcat/Km, against wild-type MTSP-1 protease domain with C122S | Binder
27 | > 30 fold | B27
28 | > 30 fold | B28
29 | > 30 fold | B29

Reference: US20240018502A1
